Literature values, collected in publication PMC6275225.
pKd: −log10 of the molar value.

Target: LFA-3 (Homo sapiens) (UniProt P19256)
UniProt P19256, sequence (P19256 29-215): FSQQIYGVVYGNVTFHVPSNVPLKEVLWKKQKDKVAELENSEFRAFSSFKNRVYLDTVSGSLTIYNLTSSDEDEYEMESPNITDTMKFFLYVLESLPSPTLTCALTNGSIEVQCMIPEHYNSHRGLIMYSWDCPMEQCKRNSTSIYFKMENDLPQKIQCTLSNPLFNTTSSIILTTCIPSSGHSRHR

- pKd: 4.82
Substance: CD2 (from UniProt P06729)
